{"source": "paper doi:10.1101/2024.11.03.621760", "about": "(bioRxiv, 2024)", "biological_target": "the molecule itself", "test": "crystal structure; HALC3_919 alone, 2.1 Å, space group P 21 3, PDB 9C7Z", "data": [{"protein": "HALC3_919 (designed binder, also called HALC3_919 trimerization domain; source: E. coli, purified (Ni-NTA, SNAC cleavage, SEC)) MSGSEELLEELRELLERLQELLELIEQGKITPEQLREAIALLIEVLQILYEALRELAEQLQRLREELG", "values": [{"measurement": "stoichiometry N", "value": 3}]}]}
